Measurements: FireProtDB (doi:10.1021/bi300982v)

Details: Thermus thermophilus, pH 7, sodium phosphate 50 mM, transition: 2, reversible: yes, whole UniProt chain shown; for denaturant midpoint (higher = more stable): 25 °C, GdnHCl

B1: Cytochrome c-552 wild type, P04164 (protein)
chain: QADGAKIYAQCAGCHQQNGQGIPGAFPPLAGHVAEILAKEGGREYLILVLLYGLQGQIEVKGMKYNGVMSSFAQLKDEEIAAVLNHIATAWGDAKKVKGFKPFTAEEVKKLRAKKLTPQQVLAERKKLGLK
denaturant midpoint (higher = more stable) (absorbance): 3.6 M | denaturant midpoint (higher = more stable) (far-UV-CD): 4.1 M | denaturant midpoint (higher = more stable) (heme-CD): 3.4 M | Tm (Thermal, CD): 95 °C | heat capacity change of unfolding (Thermal, CD): 0.31 kcal/mol/K | unfolding enthalpy (calorimetric) (Thermal, CD): 30.4 kcal/mol | unfolding free energy (Thermal, CD): 3.11 kcal/mol
